Reference: patent publication US20110183902A1

Biological target: mouse GCG-R (in pancreatic islets of mice) (mouse) (UniProt Q61606)
Assay: cell-based or functional assay

Sequence of mouse GCG-R (in pancreatic islets of mice) (mouse) (Q61606 27-485): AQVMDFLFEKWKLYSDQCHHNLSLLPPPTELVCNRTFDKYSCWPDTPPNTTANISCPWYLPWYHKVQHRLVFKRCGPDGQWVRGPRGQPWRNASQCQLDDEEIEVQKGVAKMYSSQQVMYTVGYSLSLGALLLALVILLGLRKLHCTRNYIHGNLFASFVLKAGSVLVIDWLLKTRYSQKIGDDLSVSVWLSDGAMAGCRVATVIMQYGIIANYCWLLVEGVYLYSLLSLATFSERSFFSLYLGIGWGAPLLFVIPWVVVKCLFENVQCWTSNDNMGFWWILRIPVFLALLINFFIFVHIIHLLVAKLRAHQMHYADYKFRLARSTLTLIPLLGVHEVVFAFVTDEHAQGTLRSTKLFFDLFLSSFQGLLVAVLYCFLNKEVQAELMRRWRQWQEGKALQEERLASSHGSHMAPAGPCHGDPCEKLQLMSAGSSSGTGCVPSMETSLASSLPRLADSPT

Q: “native OXM peptide (species not stated, Example 11)” was tested. Which fold-increase in fractional GSIS, GCG-R-/- islets relative to WT did it give?
A: 32 % reduction
